In patent US20040072240A1:

Target: HLA A2.1 molecule (human)
Test: T2 cells, flow cytometry; P1Y variant against its natural peptide

Substance: P1Y variant of gp100 209 (peptide)
- DC50 Y1-DC50 WT: 2 h
- RA WT/RA Y1: 1.7
